Results from patent publication US20240374532A1.
Each block holds one substance with its values, some of them ahead of it.

Legend:
[1] = molecular target: GST-Casp8p41 (UniProt Q14790); assay: SPR, GST-Bcl-2 R146A over immobilized Casp8p41
[2] = molecular target: GST-Mcl-1 (UniProt Q07820); assay: SPR (Biacore 3000), GST-Mcl-1 binding to GST-Casp8p41, mean of 3 experiments; target Mcl-1
[3] = molecular target: GST-Bcl-xL (UniProt Q07817); assay: SPR (Biacore 3000), GST-Bcl-xL binding to GST-Casp8p41, mean of 3 experiments; target Bcl-xL
Chain of GST-Bcl-xL (Q07817 1-212): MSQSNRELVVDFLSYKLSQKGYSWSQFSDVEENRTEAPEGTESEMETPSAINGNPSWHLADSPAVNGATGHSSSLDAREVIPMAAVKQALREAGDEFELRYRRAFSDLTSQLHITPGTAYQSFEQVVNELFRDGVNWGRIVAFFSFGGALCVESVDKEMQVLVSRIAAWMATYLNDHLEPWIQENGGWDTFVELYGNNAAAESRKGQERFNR

[4] = molecular target: GST-Bcl-2 (human) (UniProt P10415); assay: SPR (Biacore 3000), GST-Bcl-2 injected over immobilized GST-Casp8p41, mean of 3 experiments; target Bcl-2
Chain of GST-Bcl-2 (human) (P10415 1-218): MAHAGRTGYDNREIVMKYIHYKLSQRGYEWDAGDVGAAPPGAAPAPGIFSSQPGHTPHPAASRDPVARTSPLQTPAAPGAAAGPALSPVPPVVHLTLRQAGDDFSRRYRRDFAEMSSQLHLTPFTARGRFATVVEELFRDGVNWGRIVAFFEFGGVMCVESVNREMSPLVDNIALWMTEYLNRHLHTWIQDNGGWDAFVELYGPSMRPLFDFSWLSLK

[5] = molecular target: GST-Bcl-2 (human) (UniProt P10415); assay: SPR, GST-Casp8p41 Val150Glu/Leu157Lys over immobilized GST-Bcl-2

Chain of GST-Mcl-1 (Q07820 1-327): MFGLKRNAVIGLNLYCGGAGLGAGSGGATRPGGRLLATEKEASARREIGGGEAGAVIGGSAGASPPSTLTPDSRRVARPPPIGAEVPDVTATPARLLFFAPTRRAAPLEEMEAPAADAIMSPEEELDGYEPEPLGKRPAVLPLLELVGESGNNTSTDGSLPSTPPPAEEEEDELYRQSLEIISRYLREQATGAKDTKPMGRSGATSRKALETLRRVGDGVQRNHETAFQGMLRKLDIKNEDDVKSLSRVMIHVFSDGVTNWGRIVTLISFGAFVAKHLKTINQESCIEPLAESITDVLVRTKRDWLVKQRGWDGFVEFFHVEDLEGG

- fold decrease in affinity against wild-type Bcl-2 [1]: 250 fold
Substance: GST-Bcl-2 R146A (from UniProt P10415 1-218)

- Kd [2]: 8 nM
- Kd [3]: 11 nM
- Kd [4]: 13 nM
Substance: GST-Casp8p41 (from UniProt Q14790 1-479)

- fold decrease in affinity against wild-type Casp8p41 [5]: > 300 fold
Substance: GST-Casp8p41 Val150Glu/Leu157Lys (from UniProt Q14790 1-479)
